Substrate: CC1=C(C(=O)c2ccc(Br)cc2)C(=O)C2C=CC=CC2C1=O
Assay: 1,4-Naphthoquinone reductase activity of P. falciparum glutathione reductase
Assay type: biochemical, Plasmodium falciparum
Conditions: other: pH 6.9, 100 μM NADPH, 1% DMSO
Protocol: The reduction assay mixture consisted of 100 mM potassium phosphate buffer pH 6.9, 200 mM KCl, 1 mM EDTA and 100 μM NADPH in a total volume of 1 mL. 1,4-naphthoquinone reductase activity was determined by recording the initial velocities in the presence of increasing naphthoquinone concentrations (0-300 μM). The 1,4-naphthoquinone was first dissolved in DMSO, and a final 1% DMSO concentration was kept constant in the 1,4-naphthoquinone reductase assay. For the determination of KM and Vmax values, the steady-state rates were fitted by using nonlinear regression analysis software (Kaleidagraph) to the Michaelis-Menten equation. From these values, the turnover number kcat and the catalytic efficiency kcat/KM were calculated.

B1: P. falciparum glutathione reductase (PfGR) (Plasmodium falciparum K1) (protein)
chain: VYDLIVIGGGSGGMAAARRAARHNAKVALVEKSRLGGTCVNVGCVPKKIMFNAASVHDILENSRHYGFDTKFSFNLPLLVERRDKYIQRLNNIYRQNLSKDKVDLYEGTASFLSENRILIKGTKDNNNKDNGPLNEEILEGRNILIAVGNKPVFPPVKGIENTISSDEFFNIKESKKIGIVGSGYIAVELINVIKRLGIDSYIFARGNRILRKFDESVINVLENDMKKNNINIVTFADVVEIKKVSDKNLSIHLSDGRIYEHFDHVIYCVGRSPDTENLKLEKLNVETNNNYIVVDENQRTSVNNIYAVGDCCMVKKSKEIEDLNLLKLYNEERYLNKKENVTEDIFYNVQLTPVAINAGRLLADRLFLKKTRKTNYKLIPTVIFSHPPIGTIGLSEEAAIQIYGKENVKIYESKFTNLFFSVYDIEPELKEKTYLKLVCVGKDELIKGLHIIGLNADEIVQGFAVALKMNATKKDFDETIPIHPTAAEEFLTLQPWMK
With B1 as the protein, how does the Km read?
The Km was 6.1 µM.

Reference: US9090549B2, “1,4-naphthoquinones derivatives and therapeutic use thereof” (CENTRE NATIONAL DE LA RECHERCHE SCIENTIFIQUE (C.N.R.S.), priority 2008, dated 2015)
